Usually stoichiometry N stands for the number of molecules, sites or subunits per partner or assembly.

Our source for the stoichiometry N values is paper PMC7059301.

This assay has as its target Aspergillus niger α-xylosidase AxlA (Aspergillus niger). Kind of assay: crystal structure.

On to “Aspergillus niger α-xylosidase AxlA (enzyme)”, for which the stoichiometry N was determined as 4.
